Where a chain is given by its changes, count along the chain named.
B1: SEQ ID No 1: anti-fungal protein of about 7 kDa from sugar beet leaf intercellular washing fluid, peak 3.1 in FIG. 3 (protein)
chain: ITCGLVASKLAPCIGYLQGAPGPSAGCCGGIKGLNSAAASPADRKTACTCLKSAATSIKGINYGKAASLPRQCGVSVPYAISPNTNCNAIH
B2: SEQ ID No 2: anti-fungal protein of about 7 kDa from sugar beet leaf intercellular washing fluid, peak 3.2 in FIG. 3 (protein)
chain: B1 chain with I58M, V77I

These molecules were tested on C. beticola (assay: micro-titre plate bioassay of fungal growth inhibition). Settings: spores of C. beticola, 96 well micro-titre plates, absorbance at 620 nm; FIGS. 4 and 7: 10 ug protein.
Format: cell-based
Method: The thus obtained IWF is fractionated by cation exchange chromatography on a 10 ml CM-Sepharose column (Pharmacia LKB) pre-equilibrated in starting buffer (20 mM HAc (pH 4.5)). The fractionation is performed at 4° C. at a flow rate of 25 ml/h. Fractions of 3 ml are collected. Proteins not bound to the column are removed by extensive washing of the column with starting buffer. Bound proteins are eluted by applying to the column further starting buffer comprising stepwise increased salt concentrations: viz, 0.1 M NaCl, 0.3 M NACl and 0.5 M NaCl. The absorbance at 280 nm of the eluate is measured, and fractions judged to comprise protein are tested for their anti-fungal activity against C. beticola using the microtiter plate bioassay described previously (PCT Patent Application No. PCT/DK92/00108, Publication No. WO 92/17591, now assigned to Sandoz LTD). […] The inhibition of fungal growth is measured in 96 well micro-titre plates at 620 nm, essentially as described in WO 92/17591. […] The proteins, either alone or in combination with WIN N (which is purified from barley grain or stressed barley leaf as described by Hejgaard et al (FEBS Letters, 307, 389-392 (1992)), and/or a protein having a sequence corresponding to at least one of those given in SEQ ID Nos. 4-6, are incubated with spores of C. beticola. The assay mix (240 ul) contains 100 ul of potato dextrose broth (Difco), 40 ul protein sample (or buffer control) in 100 mM Tris and 20 mM NaCl (pH 8.0) as well as approximately 400 spores in 100 ul water. The micro-titre plates are sealed with tape to avoid evaporation and contamination and subsequently incubated at room temperature on an agitator operated at 200 rpm. The absorbance at 620 nm is measured each day for 8 days and plotted for each concentration of protein vs time.

Molecule | anti-fungal activity (inhibition of fungal growth)
SEQ ID No 3: anti-fungal protein of 2.5-3 kDa from sugar beet leaf intercellular washing fluid, peaks 1 and 2 in FIG. 6 (SGECNMYGRCPPGYCCSKFGYCGVGRAYCG) | significant anti-fungal activity
B1 | significant anti-fungal activity
B2 | significant anti-fungal activity

From US6218508A, “Anti-microbial proteins” (Novartis AG, priority 1993, dated 2001)
